Measurements published in US20250304644A1, “PEPTIDES TRIPLE AGONISTS OF GIP, GLP-1 AND GLP-2” (BAINAN BIOTECH APS, priority 2021, published 2025).
Where two headings read alike, the source gives them in different places. Values belong to the molecule of their own block, whether it stands above or below them. *1 amine or outer side, *2 acyl side, *3 side chain or, on linkers, in order; H or OH if unused. Where no end group is shown, it is not given here. Side-chain parts run from the residue outwards. [ ]: non-standard residue; d: D form. The star is where a group is joined. C18 diacid = O=C(O)CCCCCCCCCCCCCCCCC(=O)*; γGlu = O=C(O)[C@H](CCC(=O)[*:2])N[*:1]; AEEA = NCCOCCOCC(=O)O; Aib = CC(C)(N)C(=O)O

What was measured:
[1] = biological target: T1, human GIPR (Homo sapiens, UniProt P48546); assay: cAMP assay (HitHunter) in transiently transfected COS-7 cells expressing human GIPR; format: cell-based; conditions: for Emax: COS-7, normalized to highest concentration of the endogenous ligand, read-out: Efficacy GIPR (Emax)
T1 construct: host or cells: COS-7
T1 sequence (P48546 22-466): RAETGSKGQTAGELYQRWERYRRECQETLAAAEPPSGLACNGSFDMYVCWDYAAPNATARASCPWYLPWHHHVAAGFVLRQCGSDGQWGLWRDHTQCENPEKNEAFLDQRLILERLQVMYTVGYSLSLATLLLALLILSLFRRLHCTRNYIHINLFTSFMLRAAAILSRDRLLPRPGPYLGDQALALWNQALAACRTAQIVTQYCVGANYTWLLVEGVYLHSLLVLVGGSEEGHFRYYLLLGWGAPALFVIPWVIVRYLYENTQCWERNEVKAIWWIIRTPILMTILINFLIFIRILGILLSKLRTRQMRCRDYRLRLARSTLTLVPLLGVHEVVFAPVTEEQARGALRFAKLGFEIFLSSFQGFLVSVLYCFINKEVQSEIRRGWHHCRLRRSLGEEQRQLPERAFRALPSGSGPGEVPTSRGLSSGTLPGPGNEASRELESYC

[2] = biological target: T2, human GLP-1R (Homo sapiens, UniProt P43220); assay: cAMP assay (HitHunter) in transiently transfected COS-7 cells expressing human GLP-1R; format: cell-based; conditions: for Emax: COS-7, normalized to highest concentration of the endogenous ligand, read-out: Efficacy GLP-1R (Emax); for EC50: cAMP, COS-7 cells, human GLP-1R
T2 construct: host or cells: COS-7
T2 sequence (P43220 24-463): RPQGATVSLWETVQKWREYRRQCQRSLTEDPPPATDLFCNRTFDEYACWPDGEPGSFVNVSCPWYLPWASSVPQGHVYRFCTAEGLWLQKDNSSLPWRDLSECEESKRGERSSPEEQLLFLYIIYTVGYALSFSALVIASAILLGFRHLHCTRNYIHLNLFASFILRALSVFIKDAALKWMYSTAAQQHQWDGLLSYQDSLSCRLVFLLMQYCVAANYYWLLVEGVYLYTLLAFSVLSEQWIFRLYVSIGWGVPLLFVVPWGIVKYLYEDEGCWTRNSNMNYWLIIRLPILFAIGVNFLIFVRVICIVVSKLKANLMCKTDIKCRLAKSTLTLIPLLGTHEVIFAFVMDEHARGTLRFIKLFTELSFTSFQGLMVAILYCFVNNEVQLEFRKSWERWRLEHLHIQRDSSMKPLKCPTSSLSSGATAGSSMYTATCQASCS

[3] = biological target: T3, human GLP-2R (Homo sapiens, UniProt O95838); assay: cAMP assay (HitHunter) in transiently transfected COS-7 cells expressing human GLP-2R; format: cell-based; conditions: for Emax: COS-7, normalized to highest concentration of the endogenous ligand, read-out: Efficacy GLP-2R (Emax)
T3 construct: host or cells: COS-7
T3 sequence (O95838 1-553): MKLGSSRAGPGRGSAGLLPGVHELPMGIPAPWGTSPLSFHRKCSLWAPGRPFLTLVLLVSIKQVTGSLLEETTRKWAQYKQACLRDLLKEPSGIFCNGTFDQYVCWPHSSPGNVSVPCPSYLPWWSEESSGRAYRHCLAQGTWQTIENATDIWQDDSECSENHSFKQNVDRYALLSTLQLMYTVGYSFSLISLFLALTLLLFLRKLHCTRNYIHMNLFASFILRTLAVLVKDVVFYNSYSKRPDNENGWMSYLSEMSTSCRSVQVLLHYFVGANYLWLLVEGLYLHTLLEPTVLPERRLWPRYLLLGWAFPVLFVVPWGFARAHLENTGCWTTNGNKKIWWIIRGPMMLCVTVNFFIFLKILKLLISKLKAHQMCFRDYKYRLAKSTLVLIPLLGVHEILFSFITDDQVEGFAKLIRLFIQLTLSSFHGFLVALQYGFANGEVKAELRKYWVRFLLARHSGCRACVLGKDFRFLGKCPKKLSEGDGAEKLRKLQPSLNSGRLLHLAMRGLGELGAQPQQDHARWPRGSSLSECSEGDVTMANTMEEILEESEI

[4] = biological target: T4, human SNAP-tagged GIPR (Homo sapiens, UniProt P48546); assay: Receptor internalization assay, HEK293A cells expressing human SNAP-tagged GIPR; format: cell-based; conditions: for Absolute hGIPR internalization (AUC): AUC of sigmoid curves up to 1 μM, 60 minutes at 37° C.; for GIPR internalization (in words): compared to native GIP; for Relative hGIPR internalization (%): relative to hGIP 1-42 = 100
T4 construct: host or cells: HEK293A
T4 sequence (P48546 22-466): T1 sequence (P48546 22-466)

[5] = biological target: T5, human SNP-tagged GLP-2R (Homo sapiens, UniProt O95838); assay: Receptor internalization assay, HEK293A cells expressing human SNAP-tagged GLP-2R; format: cell-based; conditions: AUC of sigmoid curves up to 1 μM; 60 minutes at 37° C.
T5 construct: expressed in transfected cells; host or cells: HEK293A
T5 sequence (O95838 1-553): T3 sequence (O95838 1-553)

[6] = biological target: T6, human GLP-2R (glucagon-like peptide-2 receptor) (human, UniProt O95838 1-553); assay: cell-based or functional assay
T6 sequence (looked up): T3 sequence (O95838 1-553)

[7] = biological target: human GLP-1R (glucagon-like peptide-1 receptor) (human, UniProt P43220 24-463); assay: cell-based or functional assay
[8] = biological target: T7, Human N-terminally SNAP-tagged GIPR (human, UniProt P48546 22-466, SNAP tag labeled with Tag-Lite SNAP-Lumi4-Tb); assay: cell-based or functional assay
T7 sequence (looked up): T1 sequence (P48546 22-466)

[9] = biological target: T8, human GIPR (glucose-dependent insulinotropic polypeptide receptor) (human, UniProt P48546 22-466); assay: cell-based or functional assay
T8 sequence (looked up): T1 sequence (P48546 22-466)

Absolute hGLP-2R internalization (AUC) [5]: 48.6
Molecule: hGLP-1: native human glucagon-like peptide-1, endogenous GLP-1R ligand; which form (1-37, 7-36, 7-37) not stated [reference compound]

EC50 (nM) GLP-2R [6]: 5.6 nM
Efficacy GLP-2R [6]: 112
logEC50 GLP-2R [6]: 8.3
EC50 (nM) GLP-1R [7]: 0.04 nM
Efficacy GLP-1R [7]: 103
logEC50 GLP-1R [7]: 10.4
Absolute hGIPR internalization (AUC) [8]: 16.4 AUC
Relative hGIPR internalization (%) [8]: 44%
Molecule: HADGTFTSDYSTILDKLAARDFINWLIQTKGKKNDWKHNITQK([AEEA-AEEA-γGlu-C18 diacid])-OH [Compound 26]

EC50 (nM) GIPR [9]: 0.398 nM
Efficacy GIPR [9]: 96
pEC50 GIPR [9]: 9.4
EC50 (nM) GLP-1R [7]: 0.05 nM
Efficacy GLP-1R [7]: 113
logEC50 GLP-1R [7]: 10.3
Absolute hGIPR internalization (AUC) [8]: 15 AUC
Relative hGIPR internalization (%) [8]: 41%
Molecule: HADGTFTSDYSTILDKLAARDFINWLIQTKGKK([AEEA-AEEA-γGlu-C18 diacid])NDWKHNITQ-OH [Compound 24]

Efficacy GIPR [9]: 82
EC50 (nM) GLP-1R [7]: 0.06 nM
Efficacy GLP-1R [7]: 112
logEC50 GLP-1R [7]: 10.2
Absolute hGIPR internalization (AUC) [8]: 2.1 AUC
B1: Compound 18 (peptide)
peptide: HADGTFTSDYSTILDNLAAK([AEEA-AEEA-γGlu-C18 diacid])DFINWLIQTKGKK-OH
modifications: N-terminus assumed
SMILES: CC[C@H](C)[C@H](NC(=O)[C@H](Cc1ccccc1)NC(=O)[C@H](CC(=O)O)NC(=O)[C@H](CCCCNC(=O)COCCOCCNC(=O)COCCOCCNC(=O)CC[C@H](NC(=O)CCCCCCCCCCCCCCCCC(=O)O)C(=O)O)NC(=O)[C@H](C)NC(=O)[C@H](C)NC(=O)[C@H](CC(C)C)NC(=O)[C@H](CC(N)=O)NC(=O)[C@H](CC(=O)O)NC(=O)[C@H](CC(C)C)NC(=O)[C@@H](NC(=O)[C@@H](NC(=O)[C@H](CO)NC(=O)[C@H](Cc1ccc(O)cc1)NC(=O)[C@H](CC(=O)O)NC(=O)[C@H](CO)NC(=O)[C@@H](NC(=O)[C@H](Cc1ccccc1)NC(=O)[C@@H](NC(=O)CNC(=O)[C@H](CC(=O)O)NC(=O)[C@H](C)NC(=O)[C@@H](N)Cc1c[nH]cn1)[C@@H](C)O)[C@@H](C)O)[C@@H](C)O)[C@@H](C)CC)C(=O)N[C@@H](CC(N)=O)C(=O)N[C@@H](Cc1c[nH]c2ccccc12)C(=O)N[C@@H](CC(C)C)C(=O)N[C@H](C(=O)N[C@@H](CCC(N)=O)C(=O)N[C@H](C(=O)N[C@@H](CCCCN)C(=O)NCC(=O)N[C@@H](CCCCN)C(=O)N[C@@H](CCCCN)C(=O)O)[C@@H](C)O)[C@@H](C)CC

Second part, the molecule before the results:

Molecule: HADGTFTSDYSTILDKLAARDFINWLIQTKGKKNDWKHNITQK([AEEA-AEEA-γGlu-C18 diacid])-OH [Compound 26]
Emax [1]: 106%
EC50 ([1]; cAMP, COS-7 cells, human GIPR): 0.316 nM
Emax [2]: 103%
EC50 ([2]; read-out: logEC50 GLP-1R (converted)): 0.0398 nM
Emax [3]: 112%
Absolute hGIPR internalization (AUC) [4]: 16.4
GIPR internalization (in words) [4]: internalization of the GIPR to a higher extent
Relative hGIPR internalization (%) [4]: 44%

Molecule: HADGTFTSDYST[Aib]LDKLAARDFINWLIQTKGKKNDWKHNITQK([AEEA-AEEA-γGlu-C18 diacid])-OH [Compound 27]
Emax [1]: 124%
Emax [2]: 115%
EC50 ([2]; read-out: EC50 (nM) GLP-1R): 0.05 nM
Emax [3]: 85%
EC50 ([3]; cAMP, COS-7 cells, human GLP-2R, read-out: EC50 (nM) GLP-2R): 3.2 nM
Absolute hGIPR internalization (AUC) [4]: 9.0
GIPR internalization (in words) [4]: internalization of the GIPR to a higher extent
Relative hGIPR internalization (%) [4]: 24%

Molecule: HXDGTFISDYSTILDNLAARDFINWLIQTKITK (Aib at position 2; K33 acylated with C10, K(C10); C-terminal amide (-NH2)) [Compound 1]
Absolute hGIPR internalization (AUC) [8]: 5.3 AUC
